Experimental findings from patent publication US20030100489 are described below.

For one data set, the target named is T1, GST-p16 fusion protein.
T1 chain: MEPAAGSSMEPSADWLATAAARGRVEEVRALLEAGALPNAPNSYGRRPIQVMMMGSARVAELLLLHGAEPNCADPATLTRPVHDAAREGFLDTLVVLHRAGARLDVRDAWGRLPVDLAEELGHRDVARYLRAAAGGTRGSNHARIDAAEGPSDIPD

The next data set concerns the target T2, GST-p15.
T2 chain: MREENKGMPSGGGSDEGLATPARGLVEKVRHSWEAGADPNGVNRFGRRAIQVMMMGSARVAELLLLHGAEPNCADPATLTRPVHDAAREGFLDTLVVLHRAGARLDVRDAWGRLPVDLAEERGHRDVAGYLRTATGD

The target in the next data set is T3, p15.
T3 chain: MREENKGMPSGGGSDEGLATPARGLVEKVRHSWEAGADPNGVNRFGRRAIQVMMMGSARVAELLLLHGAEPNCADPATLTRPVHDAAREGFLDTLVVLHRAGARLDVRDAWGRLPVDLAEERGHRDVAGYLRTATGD

The target of a further data set is T4, p16.
T4 chain: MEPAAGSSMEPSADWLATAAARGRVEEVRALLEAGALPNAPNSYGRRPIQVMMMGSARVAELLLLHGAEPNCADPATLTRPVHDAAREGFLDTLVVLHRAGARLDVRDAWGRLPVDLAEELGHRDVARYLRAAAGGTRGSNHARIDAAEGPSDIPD

p21, P38936, sequence (P38936 whole entry): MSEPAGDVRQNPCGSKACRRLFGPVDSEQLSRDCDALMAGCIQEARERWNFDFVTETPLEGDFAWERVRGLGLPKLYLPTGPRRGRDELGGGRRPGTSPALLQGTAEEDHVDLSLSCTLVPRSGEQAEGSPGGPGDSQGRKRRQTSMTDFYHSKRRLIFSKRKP

B1: CDK4 (wild-type) (protein)
chain: MATSRYEPVAEIGVGAYGTVYKARDPHSGHFVALKSVRVPNGGGGGGGLPISTVREVALLRRLEAFEHPNVVRLMDVCATSRTDREIKVTLVFEHVDQDLRTYLDKAPPPGLPAETIKDLMRQFLRGLDFLHANCIVHRDLKPENILVTSGGTVKLADFGLARIYSYQMALTPVVVTLWYRAPEVLLQSTYATPVDMWSVGCIFAEMFRRKPLFCGNSEADQLGKIFDLIGLPPEDDWPRDVSLPRGAFPPRGPRPVQSVVPEMEESGAQLLLEMLTFNPHKRISAFRALQHSYLHKDEGNPE
In the case of B1, the “kinase activity of CDK4 (GST-RB phosphorylation)” value is reported as “Like p16, the p15-GST fusion protein was able to inhibit the kinase activity of CDK4” in the data set with GST-p16 fusion protein and “Like p16, the p15-GST fusion protein was able to inhibit the kinase activity of CDK4” with GST-p15. The “CDK4 kinase activity (GST-RB phosphorylation)” value is listed as “upon addition of increasing amounts of either p16- or p15containing lysate to the CDK4/cyclin D mixture, the wild-type CDK4 was inhibited” with p15 and “upon addition of increasing amounts of either p16- or p15containing lysate to the CDK4/cyclin D mixture, the wild-type CDK4 was inhibited” in the data set with p16. In addition, the “RB phosphorylation by cyclin D/CDK4 (GST-RB substrate)” value with p21, P38936 is recorded as “Addition of increasing amounts of p21 resulted in the accumulation of cyclin D/CDK4/p21 ternary complexes with a corresponding inhibition of RB phosphorylation”. In the data set with p16, the “ability of CDK4 to phosphorylate RB” value was “In response to increasing amounts of p16, corresponding decreases in the ability of CDK4 to phosphorylate RB was observed”.

B2: CDK4 Arg24-Cys mutant (protein)
chain: MATSRYEPVAEIGVGAYGTVYKACDPHSGHFVALKSVRVPNGGGGGGGLPISTVREVALLRRLEAFEHPNVVRLMDVCATSRTDREIKVTLVFEHVDQDLRTYLDKAPPPGLPAETIKDLMRQFLRGLDFLHANCIVHRDLKPENILVTSGGTVKLADFGLARIYSYQMALTPVVVTLWYRAPEVLLQSTYATPVDMWSVGCIFAEMFRRKPLFCGNSEADQLGKIFDLIGLPPEDDWPRDVSLPRGAFPPRGPRPVQSVVPEMEESGAQLLLEMLTFNPHKRISAFRALQHSYLHKDEGNPE
In the case of B2, the “CDK4 kinase activity (GST-RB phosphorylation)” value in the data set with p27 is “the particular mutation, Arg24-Cys, did not effect the binding or inhibitory ability of either of those proteins”; in the data set with p15, “the mutant CDK4 was relatively unaffected”; with p21, P38936, “the particular mutation, Arg24-Cys, did not effect the binding or inhibitory ability of either of those proteins”; with p16 it was “the mutant CDK4 was relatively unaffected”.
